Reference: PMC5141474, “Diverse specificity of cellulosome attachment to the bacterial cell surface” (Scientific Reports, 2016)
Blank lines part the entries; values can stand above or below the molecule they belong to.

Legend:
Assay in all cases: ITC; VP-ITC, 318.15 K; Doc in the cell, Coh injected (28 x 10 uL); single site-binding model; proteins in 50 mM HEPES pH 7.5, 2 mM CaCl2, 0.5 mM TCEP
[1] = molecular target: C. thermocellum CipB XDoc F148A (Clostridium thermocellum)
[2] = molecular target: C. thermocellum CipB XDoc M114A (Clostridium thermocellum)
[3] = molecular target: C. thermocellum CipB XDoc S121A (Clostridium thermocellum)
[4] = molecular target: C. thermocellum CipB XDoc (X-module and type-II dockerin of CipB), expressed on its own (Clostridium thermocellum) (UniProt A3DGE8)
[5] = molecular target: C. thermocellum CipB XDoc I154A (Clostridium thermocellum)
[6] = molecular target: C. thermocellum CipB XDoc M118A (Clostridium thermocellum)
[7] = molecular target: T1, C. thermocellum ScaF Coh (type-II cohesin of anchoring scaffoldin ScaF), expressed on its own (Clostridium thermocellum, UniProt P71143 29-200); details: both partners purified
T1 construct: single type-II cohesin of anchoring scaffoldin ScaF of Clostridium thermocellum (the Coh of PDB 2b59 and 2bm3); also called CohScaF; source: E. coli BL21 (DE3), pET28a, purified (IMAC)
T1 sequence (looked up): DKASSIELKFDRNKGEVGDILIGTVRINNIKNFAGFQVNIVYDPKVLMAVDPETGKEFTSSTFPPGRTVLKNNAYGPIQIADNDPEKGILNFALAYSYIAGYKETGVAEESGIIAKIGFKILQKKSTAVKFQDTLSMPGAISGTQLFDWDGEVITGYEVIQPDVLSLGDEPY

Ka [1]: 619000 M⁻¹ | dH [1]: -8.83 kcal/mol | stoichiometry N [1]: 1.01 | dH [2]: -10.4 kcal/mol | dH [3]: -10.3 kcal/mol | Ka [4]: > 1e+09 M⁻¹ | dH [4]: -12.4 kcal/mol | Ka [5]: 1.2e+06 M⁻¹ | dH [5]: -9.75 kcal/mol | stoichiometry N [5]: 1.02 | dH [6]: -8.66 kcal/mol
Molecule: C. thermocellum ScaC2 Coh (type-II cohesin of anchoring scaffoldin ScaC), expressed on its own (domain or fragment)

Ka [2]: 7.17e+06 M⁻¹ | dH [2]: -13 kcal/mol | stoichiometry N [2]: 1.01 | Ka [3]: 9.16e+06 M⁻¹ | dH [3]: -6.93 kcal/mol | stoichiometry N [3]: 1.01 | Ka [4]: 1.21e+07 M⁻¹ | dH [4]: -8.27 kcal/mol | stoichiometry N [4]: 1 | Ka [5]: 1.08e+07 M⁻¹ | dH [5]: -17.3 kcal/mol | stoichiometry N [5]: 1.03 | Ka [6]: 6.96e+06 M⁻¹ | dH [6]: -25.5 kcal/mol | stoichiometry N [6]: 0.99
Molecule: C. thermocellum ScaE6 Coh (type-II cohesin of scaffoldin ScaE) (domain or fragment)

Ka [7]: > 1e+09 M⁻¹
B1: C. thermocellum CipB XDoc (X-module and type-II dockerin of CipB), expressed on its own (domain or fragment, Clostridium thermocellum)
chain: NNDSTDKTTVSGYISVDFDYPPESESKIKSGFNVKVAGTELSTKTDEKGYFEISGIPGDMREFTLEISKRNYLKRNVTVNGTGKLVVSTEDNPLILWAGDVERKGVQDNAINMVDVMEISKVFGTRAGDEEYVAELDLNMDGAINLFDIAIVIRHFNALPSRY
notes: CipB (ORF Cthe_1806, 2177 amino acids) of Clostridium thermocellum: X-module and C-terminal type-II dockerin (XDoc); numbers count on: the recombinant XDoc chain (X-module 1-98, Doc 99-164); also called XDocCipB; CipB type-II Doc; source: E. coli Tuner (DE3), pET21a, purified (IMAC)
